Experimental data reported in CN107417788A (INST PASTEUR SHANGHAI CAS, dated 2017).

Biological target: T1, 生物素化Zaire GP蛋白 (pIRES-Zaire GP-BirA-FLAG SP-) (Ebola virus (EBOV) subtype Zaire, UniProt Q05320 33-676)
T1 construct: range 33-676; also called Zaire-GP-Biotin; Zaire-GP-BirA细胞裂解液
T1 sequence: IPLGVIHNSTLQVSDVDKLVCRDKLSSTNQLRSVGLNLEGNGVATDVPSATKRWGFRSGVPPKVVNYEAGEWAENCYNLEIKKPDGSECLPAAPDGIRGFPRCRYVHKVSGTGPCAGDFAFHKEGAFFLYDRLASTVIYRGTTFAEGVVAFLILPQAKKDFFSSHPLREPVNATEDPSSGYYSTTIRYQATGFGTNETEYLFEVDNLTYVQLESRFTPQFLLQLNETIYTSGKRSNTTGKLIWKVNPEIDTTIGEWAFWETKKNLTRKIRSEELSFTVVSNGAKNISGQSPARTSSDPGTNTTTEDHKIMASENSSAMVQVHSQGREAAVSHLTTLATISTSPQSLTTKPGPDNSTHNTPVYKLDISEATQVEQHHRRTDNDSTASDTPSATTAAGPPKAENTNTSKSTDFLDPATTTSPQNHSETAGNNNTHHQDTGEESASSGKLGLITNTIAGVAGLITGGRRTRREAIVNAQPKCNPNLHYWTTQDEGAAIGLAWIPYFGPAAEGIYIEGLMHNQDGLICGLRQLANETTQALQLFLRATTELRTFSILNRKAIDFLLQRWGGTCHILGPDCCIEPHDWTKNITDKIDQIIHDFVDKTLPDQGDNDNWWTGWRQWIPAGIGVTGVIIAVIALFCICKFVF
Assay: indirect ELISA, […] (1:300) […]

B1: S37-3 (antibody, V domains shown)
VH: EVQLQQSGPELVKPGASVKISCKASGYSFTGYFMNWVKQSHGKSLEWIGRINPYNGDTFYNQKFKGKATLTVDKSSSTAHMELLSLTSEDSAVYYCGRGLRAFLDYWGQGTTLTVSS
VL: DIVLTQSPATLSVTPGDRVSLSCRASQSISNYLHWYQQKSHESPRLLIKYASQSISGIPSRFSGSGSGTDFTLSINSVETEDFGMYFCQQSNSWPHTFGGGTKLEIK
notes: also called 单克隆抗体S37-3; S37-3上清
Does B1 bind?
Result: binds
